Data on eleven molecules can be found in US20050203288A1 (DEUTSCHES KREBSFORSCHUNGSZENTRUM STIFUNG DES OFFENTLICHEN …, published 2005).

First the molecules themselves.
T1: Livin-β (UniProt Q96CA5-2 1-280, limits assumed)
T1 construct: the beta isoform is meant; also called Livin (beta)
T1 sequence (looked up): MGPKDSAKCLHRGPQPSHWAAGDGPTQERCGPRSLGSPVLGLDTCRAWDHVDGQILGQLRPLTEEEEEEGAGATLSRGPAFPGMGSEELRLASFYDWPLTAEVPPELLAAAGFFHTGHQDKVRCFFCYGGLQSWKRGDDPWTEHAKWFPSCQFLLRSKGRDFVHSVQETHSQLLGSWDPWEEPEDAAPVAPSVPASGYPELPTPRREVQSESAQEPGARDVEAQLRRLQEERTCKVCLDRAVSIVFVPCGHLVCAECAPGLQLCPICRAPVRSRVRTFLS

B1: peptide number 16 (peptide, not shown: large carriers)
chain: GPHSSAHDRIWLRVRGLRIILLVLRSAEIYES
notes: that construct is not described for linear peptides
B2: peptide number 54 (peptide, not shown: large carriers)
chain: GPWWKDRGVLVRLCVLRLVVGVVLRSAEIYES
notes: Mammalian two-hybrid construct not described for linear peptides
B3: peptide number 15 (peptide, not shown: large carriers)
chain: GSGCGCFVRGRIVRIRCVILLLRVLRSAEIYES
notes: as for B1
B4: peptide number 40 (peptide, not shown: large carriers)
chain: GSGCVRIRVGIVRRMLFLRFVFLVP
notes: as for B1
B5: peptide number 77 (peptide, not shown: large carriers)
chain: GPFSEHARGHVVTICRLRLLFWLLRSAEIYES
notes: as for B1
B6: peptide number 90 (peptide, not shown: large carriers)
chain: GPYPYLRILLVQKIACVRRALWVLRSAEIYES
notes: as for B1
B7: peptide number 7 (peptide, not shown: large carriers)
chain: GPFKRCHERLVAFARCWFMWSMVLRSAEIYES
notes: as for B1
B8: peptide number 65 (peptide, not shown: large carriers)
chain: GAGLGRVIRLRIVVLRCIFLLFRVLRSAEIYES
notes: as for B1
B9: peptide number 75 (peptide, not shown: large carriers)
chain: GSRCIRRRISILFFVFRVLRSRRVLRSAEIYES
notes: as for B1
B10: peptide number 69 (peptide, not shown: large carriers)
chain: GPFPFDYPRWIMIVLLRGVLRSAEIYES
notes: as for B1
B11: peptide number 5 (peptide, not shown: large carriers)
chain: GSRFRVFVCSLFSFLSGRGGGVVVLRSAEIYES
notes: as for B1

T3 sequence (Q13489 whole entry): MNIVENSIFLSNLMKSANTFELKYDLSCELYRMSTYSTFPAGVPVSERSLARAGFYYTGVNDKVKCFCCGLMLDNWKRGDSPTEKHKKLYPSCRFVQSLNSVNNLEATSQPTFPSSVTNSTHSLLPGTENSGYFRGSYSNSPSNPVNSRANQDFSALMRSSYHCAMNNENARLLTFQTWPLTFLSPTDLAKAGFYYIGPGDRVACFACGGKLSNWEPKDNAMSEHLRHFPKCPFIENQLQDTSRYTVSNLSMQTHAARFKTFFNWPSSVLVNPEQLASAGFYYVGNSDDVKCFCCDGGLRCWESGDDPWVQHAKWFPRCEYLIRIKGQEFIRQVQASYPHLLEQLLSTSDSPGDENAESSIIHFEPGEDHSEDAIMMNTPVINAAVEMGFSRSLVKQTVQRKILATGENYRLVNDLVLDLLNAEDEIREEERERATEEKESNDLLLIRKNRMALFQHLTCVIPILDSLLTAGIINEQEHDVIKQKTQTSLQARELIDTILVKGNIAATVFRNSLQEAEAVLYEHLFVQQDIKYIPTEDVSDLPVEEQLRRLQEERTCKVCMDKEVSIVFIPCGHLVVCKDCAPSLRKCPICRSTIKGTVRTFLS
T5 sequence (Q13490 whole entry): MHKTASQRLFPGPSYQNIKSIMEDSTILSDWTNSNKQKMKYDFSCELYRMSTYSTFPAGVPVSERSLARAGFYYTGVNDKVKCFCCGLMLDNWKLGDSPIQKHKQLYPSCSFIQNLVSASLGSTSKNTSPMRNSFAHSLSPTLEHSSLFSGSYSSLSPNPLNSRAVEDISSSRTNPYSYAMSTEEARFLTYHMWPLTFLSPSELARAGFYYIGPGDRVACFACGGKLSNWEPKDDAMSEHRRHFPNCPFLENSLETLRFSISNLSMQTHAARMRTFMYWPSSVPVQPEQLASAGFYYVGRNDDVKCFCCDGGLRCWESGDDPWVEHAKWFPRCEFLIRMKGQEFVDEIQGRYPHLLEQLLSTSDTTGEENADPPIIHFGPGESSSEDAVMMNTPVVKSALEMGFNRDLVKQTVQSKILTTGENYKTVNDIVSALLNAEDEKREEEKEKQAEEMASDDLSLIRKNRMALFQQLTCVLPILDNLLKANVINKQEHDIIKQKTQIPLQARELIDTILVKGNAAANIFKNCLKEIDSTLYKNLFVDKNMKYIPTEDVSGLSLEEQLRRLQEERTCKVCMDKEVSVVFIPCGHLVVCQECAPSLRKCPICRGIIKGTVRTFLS

One assay deals with T2, Survivin (UniProt O15392 1-142).
T2 construct: construct not described; also called surivin
T2 sequence (O15392 whole entry): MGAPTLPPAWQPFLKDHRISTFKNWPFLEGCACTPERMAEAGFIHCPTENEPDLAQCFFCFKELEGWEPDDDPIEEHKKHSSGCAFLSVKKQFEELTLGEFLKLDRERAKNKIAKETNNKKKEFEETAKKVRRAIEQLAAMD
The assay is described as follows: yeast two-hybrid.
For B1, the binding result is listed as “no binding”.

On to B2, for which the binding result was “no binding”.

As for B3, the binding result is “no binding”.

Regarding B4, the binding result is recorded as “no binding”.

In the case of B5, the binding result is reported as “no binding”.

For B6, the binding result is reported as “no binding”.

B7: the binding result is “no binding”.

B8: the binding result was “no binding”.

Consider B9, for which the binding result is “no binding”.

For the molecule B10, the binding result is listed as “no binding”.

B11: the binding result was “no binding”.

The target in another assay is T1, Livin-β. The experiment in a line: yeast two-hybrid.
For B1, the binding result is on record as “binds”.

As to B2, the binding result is given as “binds”.

Consider B3, for which the binding result is “binds”.

As to B5, the binding result is “binds”.

B6: the binding result is given as “binds”.

For the molecule B7, the binding result is recorded as “binds”.

Consider B8, for which the binding result is “binds”.

In the case of B9, the binding result is listed as “binds”.

Take B10: the binding result is on record as “binds”.

For B11, the binding result is “binds”.

A further assay concerns the target T3, c-IAP-2 (UniProt Q13489 1-604, limits assumed).
T3 construct: construct not described; also called c-LAP-2
The experiment in a line: yeast two-hybrid.
Turning to B1, the binding result was “no binding”.

Take B2: the binding result is reported as “no binding”.

Consider B3, for which the binding result was “no binding”.

With B4, the binding result is given as “no binding”.

With B5, the binding result is listed as “no binding”.

Regarding B6, the binding result is listed as “no binding”.

Regarding B7, the binding result is “no binding”.

Regarding B8, the binding result is “no binding”.

For B9, the binding result is listed as “no binding”.

As to B10, the binding result is on record as “no binding”.

With B11, the binding result is “no binding”.

The target in a further assay is T4, XIAP (UniProt P98170 1-497, limits assumed).
T4 construct: construct not described
T4 sequence (P98170 whole entry): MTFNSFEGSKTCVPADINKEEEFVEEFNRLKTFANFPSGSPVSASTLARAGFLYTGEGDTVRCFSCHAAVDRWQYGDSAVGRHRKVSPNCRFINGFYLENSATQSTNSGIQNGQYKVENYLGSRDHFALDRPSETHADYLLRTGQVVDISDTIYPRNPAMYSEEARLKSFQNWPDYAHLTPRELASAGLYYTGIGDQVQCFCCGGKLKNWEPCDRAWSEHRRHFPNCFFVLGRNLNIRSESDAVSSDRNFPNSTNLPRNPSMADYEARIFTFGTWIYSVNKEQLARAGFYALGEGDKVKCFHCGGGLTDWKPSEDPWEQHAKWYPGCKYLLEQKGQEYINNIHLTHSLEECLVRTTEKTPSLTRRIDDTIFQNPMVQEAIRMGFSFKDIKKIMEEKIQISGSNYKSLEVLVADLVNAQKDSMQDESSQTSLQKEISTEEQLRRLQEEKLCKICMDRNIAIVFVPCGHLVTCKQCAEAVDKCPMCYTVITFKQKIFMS
The assay is described as follows: yeast two-hybrid.
B1: the binding result was “no binding”.

B2: the binding result is given as “no binding”.

Consider B3, for which the binding result is on record as “no binding”.

For the molecule B4, the binding result is “no binding”.

B5: the binding result is “binds”.

Regarding B6, the binding result is “no binding”.

Consider B7, for which the binding result is listed as “no binding”.

For the molecule B8, the binding result is listed as “no binding”.

For the molecule B9, the binding result is on record as “no binding”.

Regarding B10, the binding result is on record as “no binding”.

B11: the binding result is recorded as “no binding”.

A further assay has as its target T5, c-IAP-1 (UniProt Q13490 1-618, limits assumed).
T5 construct: construct not described
The assay is described as follows: yeast two-hybrid.
On to B1, for which the binding result was “no binding”.

Consider B2, for which the binding result was “no binding”.

As to B3, the binding result is given as “no binding”.

Consider B4, for which the binding result is “no binding”.

As to B5, the binding result is recorded as “no binding”.

Take B6: the binding result is recorded as “no binding”.

As to B7, the binding result was “no binding”.

On to B8, for which the binding result is “no binding”.

Consider B9, for which the binding result is “no binding”.

Take B10: the binding result is “no binding”.

With B11, the binding result is listed as “no binding”.
